From patent US20260232801A1 (published 2026)

T1: TP53 wild-type peptide on HLA-A*02:01 (human)
T1 peptide: HMTEVVRRC

T2: TP53 R175H peptide on HLA-A*02:01 (human)
T2 peptide: HMTEVVRHC


Legend:
[1] = target: T1, TP53 wild-type peptide on HLA-A*02:01; test: cytokine release
[2] = target: T2, TP53 R175H peptide on HLA-A*02:01; test: multimer staining

Binder | binding result [1] | binding result [2]
TCR 1A (TCR, V domains shown) Valpha: SQQGEEDPQALSIQEGENATMNCSYKTSINNLQWYRQNSGRGLVHLILIRSNEREKHSGRLRVTLDTSKKSSSLLITASRAADTASYFCATGSNYGGSQGNLIFGKGTKLSVKP Vbeta: EAGVAQSPRYKIIEKRQSVAFWCNPISGHATLYWYQQILGQGPKLLIQFQNNGVVDDSQLPKDRFSAERLKGVDSTLKIQPAKLEDSAVYLCASSLDYGSSYEQYFGPGTRLTVT | no recognition | recognises
TCR 1B (TCR, V domains shown) Valpha: AQKITQTQPGMFVQEKEAVTLDCTYDTSDPSYGLFWYKQPSSGEMIFLIYQGSYDQQNATEGRYSLNFQKARKSANLVISASQLGDSAMYFCAMREGFSGGYNKLIFGAGTRLAVHP Vbeta: DAGVTQSPTHLIKTRGQQVTLRCSPISGHKSVSWYQQVLGQGPQFIFQYYEKEERGRGNFPDRFSARQFPNYSSELNVNALLLGDSALYLCASSDDTGTTKSSGANVLTFGAGSRLTVL | no recognition | recognises
TCR 1C (TCR, V domains shown) Valpha: DQQVKQNSPSLSVQEGRISILNCDYTNSMFDYFLWYKKYPAEGPTFLISISSIKDKNEDGRFTVFLNKSAKHLSLHIVPSQPGDSAVYFCAATVGLAGNMLTFGGGTRLMVKP Vbeta: DSGVTQTPKHLITATGQRVTLRCSPRSGDLSVYWYQQSLDQGLQFLIQYYNGEERAKGNILERFSAQQFPDLHSELNLSSLELGDSALYFCASSTPLSGSSTDTQYFGPGTRLTVL | no recognition | recognises
TCR 1D (TCR, V domains shown) Valpha: EDQVTQSPEALRLQEGESSSLNCSYTVSGLRGLFWYRQDPGKGPEFLFTLYSAGEEKEKERLKATLTKKESFLHITAPKPEDSATYLCAVHSNYQLIWGAGTKLIIKP Vbeta: DSGVTQTPKHLITATGQRVTLRCSPRSGDLSVYWYQQSLDQGLQFLIHYYNGEERAKGNILERFSAQQFPDLHSELNLSSLELGDSALYFCASSTPLRTRGTDTQYFGPGTRLTVL | no recognition | recognises
TCR 3C (TCR, V domains shown) Valpha: GEDVEQSLFLSVREGDSSVINCTYTDSSSTYLYWYKQEPGAGLQLLTYIFSNMDMKQDQRLTVLLNKKDKHLSLRIADTQTGDSAIYFCAEGYGGKLIFGQGTELSVKP Vbeta: GAGVSQTPSNKVTEKGKYVELRCDPISGHTALYWYRQSLGQGPEFLIYFQGTGAADDSGLPNDRFFAVRPEGSVSTLKIQRTERGDSAVYLCASSSKTGVVGEQFFGPGTRLTVL | no recognition | recognises
TCR 3A (TCR, V domains shown) Valpha: GEDVEQSLFLSVREGDSSVINCTYTDSSSTYLYWYKQEPGAGLQLLTYIFSNMDMKQDQRLTVLLNKKDKHLSLRIADTQTGDSAIYFCAEISANQAGTALIFGKGTTLSVSS Vbeta: DTGVSQNPRHKITKRGQNVTFRCDPISEHNRLYWYRQTLGQGPEFLTYFQNEAQLEKSRLLSDRFSAERPKGSFSTLEIQRTEQGDSAMYLCASSPLDSYQETQYFGPGTRLLVL | no recognition | recognises
TCR 3B (TCR, V domains shown) Valpha: AQKITQTQPGMFVQEKEAVTLDCTYDTSDQSYGLFWYKQPSSGEMIFLIYQGSYDEQNATEGRYSLNFQKARKSANLVISASQLGDSAMYFCAMREGRGRRALTFGSGTRLQVQP Vbeta: ETGVTQTPRHLVMGMTNKKSLKCEQHLGHNAMYWYKQSAKKPLELMFVYSLEERVENNSVPSRFSPECPNSSHLFLHLHTLQPEDSALYLCASSQDTAWDSGGETDTQYFGPGTRLTVL | no recognition | recognises
TCR 4A (TCR, V domains shown) Valpha: AQTVTQSQPEMSVQEAETVTLSCTYDTSESNYYLFWYKQPPSRQMILVIRQEAYKQQNATENRFSVNFQKAAKSFSLKISDSQLGDTAMYFCAFMKWQGGSEKLVFGKGTKLTVNP Vbeta: DTAVSQTPKYLVTQMGNDKSIKCEQNLGHDTMYWYKQDSKKFLKIMFSYNNKELIINETVPNRFSPKSPDKAHLNLHINSLELGDSAVYFCASSQALAGEVDTQYFGPGTRLTVL | no recognition | recognises
TCR 7A (TCR, V domains shown) Valpha: AQKVTQAQTEISVVEKEDVTLDCVYETRDTTYYLFWYKQPPSGELVFLIRRNSFDEQNEISGRYSWNFQKSTSSFNFTITASQVVDSAVYFCALRNSGNTPLVFGKGTRLSVIA Vbeta: DSGVTQTPKHLITATGQRVTLRCSPRSGDLSVYWYQQSLDQGLQFLIQYYNGEERAKGNILERFSAQQFPDLHSELNLSSLELGDSALYFCASSVDWVQETQYFGPGTRLLVL | no recognition | recognises
TCR 7B (TCR, V domains shown) Valpha: DAKTTQPTSMDCAEGRAANLPCNHSTISGNEYVYWYRQIHSQGPQYIIHGLKNNETNEMASLIITEDRKSSTLILPHATLRDTAVYYCIVPRGFSNTGKLIFGQGTTLQVKP Vbeta: GAVVSQHPSRVICKSGTSVKIECRSLDFQATTMFWYRQFPKQSLMLMATSNEGSKATYEQGVEKDKFLINHASLTLSTLTVTSAHPEDSSFYICSASESLALASEQYFGPGTRLTVT | no recognition | recognises
TCR 7D (TCR, V domains shown) Valpha: QKEVEQDPGPLSVPEGAIVSLNCTYSNSAFQYFMWYRQYSRKGPELLMYTYSSGNKEDGRFTAQVDKSSKYISLFIRDSQPSDSATYLCASSFSGYNKLIFGAGTRLAVHP Vbeta: DSGVTQTPKHLITATGQRVTLRCSPRSGDLSVYWYQQSLDQGLQFLIQYYNGEERAKGNILERFSAQQFPDLHSELNLSSLELGDSALYFCASSERLAGAIADTQYFGPGTRLTVL | no recognition | recognises
TCR 8A (TCR, V domains shown) Valpha: AQSVAQPEDQVNVAEGNPLTVKCTYSVSGNPYLFWYVQYPNRGLQFLLKYITGDNLVKGSYGFEAEFNKSQTSFHLKKPSALVSDSALYFCAVRAPGNTPLVFGKGTRLSVIA Vbeta: DTAVSQTPKYLVTQMGNDKSIKCEQNLGHDTMYWYKQDSKKFLKIMFSYNNKELIINETVPNRFSPKSPDKAHLNLHINSLELGDSAVYFCASSQDLGFDEKLFFGSGTQLSVL | no recognition | recognises
